What was measured:
[1] = biological target: T1, CADM1 peptide structure expressed on cells (CADM1 peptide, Myc tag, hinge, transmembrane domain, GFP) (human); assay: flow cytometry, PE anti-HA antibody alone (control) on cells with the CADM1 peptide structure
T1 sequence: DSRAGEEGSIRAVDH

[2] = biological target: comparison structure: the same structure without the CADM1 peptide (Myc tag, hinge, transmembrane domain, GFP) on cells; assay: flow cytometry, PE anti-HA antibody alone (control) on cells with the structure without the peptide
[3] = biological target: CADM1 on small cell lung cancer cell lines H146 and H69 (human) (UniProt Q9BY67); assay: flow cytometry, PE anti-HA antibody alone (control) on H146 cells
[4] = biological target: CADM1 on small cell lung cancer cell lines H146 and H69 (human) (UniProt Q9BY67); assay: flow cytometry, PE anti-HA antibody alone (control) on H69 cells
[5] = biological target: CADM1 peptide expressed on SBC-5 small cell lung cancer cells (CADM1-SBC-5; peptide - transmembrane domain - GFP) (human); assay: flow cytometry, PE anti-HA antibody alone (control) on SBC-5 cells expressing the CADM1 peptide

결합력 % [1]: 0%
결합력 % [2]: 0.1%
결합력 % [3]: 2.1%
결합력 % [4]: 2.2%
결합력 % [5]: 0.3%
Substance: PE-conjugated HA antibody (16B12 clone, Biolegend, Cat No. 901518)
